In paper PMC6800521 (RNA, 2019):

Biological target: MBP-Noc1/Noc2 complex (yeast, UniProt Q12176 1-1025; P39744 1-710)
Experiment: pull-down

Sequence of MBP-Noc1/Noc2 complex (Q12176 whole entry, chain 1 of 2): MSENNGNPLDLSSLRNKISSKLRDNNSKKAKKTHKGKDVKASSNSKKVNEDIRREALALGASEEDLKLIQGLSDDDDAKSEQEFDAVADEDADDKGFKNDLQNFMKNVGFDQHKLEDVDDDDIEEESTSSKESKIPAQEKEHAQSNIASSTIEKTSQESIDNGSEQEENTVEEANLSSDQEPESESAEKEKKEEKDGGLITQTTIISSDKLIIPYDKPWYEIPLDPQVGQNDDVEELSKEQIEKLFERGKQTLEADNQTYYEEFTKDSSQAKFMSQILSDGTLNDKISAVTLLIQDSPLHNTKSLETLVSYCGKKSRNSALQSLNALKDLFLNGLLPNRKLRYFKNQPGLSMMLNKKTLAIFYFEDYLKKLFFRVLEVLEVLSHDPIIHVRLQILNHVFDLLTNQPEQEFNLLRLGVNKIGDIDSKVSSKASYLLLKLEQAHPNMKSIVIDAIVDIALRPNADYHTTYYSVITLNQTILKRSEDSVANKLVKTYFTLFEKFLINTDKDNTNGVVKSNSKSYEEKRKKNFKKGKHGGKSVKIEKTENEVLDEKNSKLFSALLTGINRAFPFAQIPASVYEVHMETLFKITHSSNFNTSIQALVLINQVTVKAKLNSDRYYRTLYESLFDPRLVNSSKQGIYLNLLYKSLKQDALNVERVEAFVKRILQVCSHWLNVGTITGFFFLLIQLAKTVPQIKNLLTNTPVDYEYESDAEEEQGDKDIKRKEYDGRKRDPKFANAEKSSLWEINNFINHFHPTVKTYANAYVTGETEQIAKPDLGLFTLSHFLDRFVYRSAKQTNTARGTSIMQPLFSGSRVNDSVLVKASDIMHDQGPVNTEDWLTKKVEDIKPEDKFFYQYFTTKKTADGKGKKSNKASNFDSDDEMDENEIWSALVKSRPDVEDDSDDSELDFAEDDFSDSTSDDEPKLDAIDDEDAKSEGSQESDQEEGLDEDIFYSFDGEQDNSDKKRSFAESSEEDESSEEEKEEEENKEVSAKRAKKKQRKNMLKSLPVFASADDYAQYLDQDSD
Sequence of MBP-Noc1/Noc2 complex (P39744 whole entry, chain 2 of 2): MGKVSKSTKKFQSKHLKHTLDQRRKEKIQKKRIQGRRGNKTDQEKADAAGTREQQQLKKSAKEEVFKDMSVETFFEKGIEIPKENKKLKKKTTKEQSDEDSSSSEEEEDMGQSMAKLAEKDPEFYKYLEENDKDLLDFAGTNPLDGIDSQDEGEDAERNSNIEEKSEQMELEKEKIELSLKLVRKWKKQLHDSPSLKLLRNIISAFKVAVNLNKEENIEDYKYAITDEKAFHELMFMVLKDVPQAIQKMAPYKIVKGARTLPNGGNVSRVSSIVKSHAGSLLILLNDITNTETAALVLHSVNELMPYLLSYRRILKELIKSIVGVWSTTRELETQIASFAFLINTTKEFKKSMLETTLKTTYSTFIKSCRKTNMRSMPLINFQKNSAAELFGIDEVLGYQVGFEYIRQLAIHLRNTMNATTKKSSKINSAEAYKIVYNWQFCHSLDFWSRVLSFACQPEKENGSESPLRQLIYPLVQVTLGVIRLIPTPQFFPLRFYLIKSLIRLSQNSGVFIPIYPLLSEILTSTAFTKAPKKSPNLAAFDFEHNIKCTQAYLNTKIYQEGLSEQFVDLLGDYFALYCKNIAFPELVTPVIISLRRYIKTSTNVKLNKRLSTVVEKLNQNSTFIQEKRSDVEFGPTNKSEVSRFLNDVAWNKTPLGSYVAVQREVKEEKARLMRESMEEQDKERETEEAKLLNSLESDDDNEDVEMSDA

binding result: binds
B1: Rrp5 full length (natural protein, yeast, UniProt Q05022 1-1729, looked up)
chain: MVASTKRKRDEDFPLSREDSTKQPSTSSLVRNTEEVSFPRGGASALTPLELKQVANEAASDVLFGNESVKASEPASRPLKKKKTTKKSTSKDSEASSANSDEARAGLIEHVNFKTLKNGSSLLGQISAITKQDLCITFTDGISGYVNLTHISEEFTSILEDLDEDMDSDTDAADEKKSKVEDAEYESSDDEDEKLDKSNELPNLRRYFHIGQWLRCSVIKNTSLEPSTKKSKKKRIELTIEPSSVNIYADEDLVKSTSIQCAVKSIEDHGATLDVGLPGFTGFIAKKDFGNFEKLLPGAVFLGNITKKSDRSIVVNTDFSDKKNKITQISSIDAIIPGQIVDLLCESITKNGIAGKVFGLVSGVVNVSHLRTFSEEDLKHKFVIGSSIRCRIIACLENKSGDKVLILSNLPHILKLEDALRSTEGLDAFPIGYTFESCSIKGRDSEYLYLALDDDRLGKVHSSRVGEIENSENLSSRVLGYSPVDDIYQLSTDPKYLKLKYLRTNDIPIGELLPSCEITSVSSSGIELKIFNGQFKASVPPLHISDTRLVYPERKFKIGSKVKGRVISVNSRGNVHVTLKKSLVNIEDNELPLVSTYENAKNIKEKNEKTLATIQVFKPNGCIISFFGGLSGFLPNSEISEVFVKRPEEHLRLGQTVIVKLLDVDADRRRIIATCKVSNEQAAQQKDTIENIVPGRTIITVHVIEKTKDSVIVEIPDVGLRGVIYVGHLSDSRIEQNRAQLKKLRIGTELTGLVIDKDTRTRVFNMSLKSSLIKDAKKETLPLTYDDVKDLNKDVPMHAYIKSISDKGLFVAFNGKFIGLVLPSYAVDSRDIDISKAFYINQSVTVYLLRTDDKNQKFLLSLKAPKVKEEKKKVESNIEDPVDSSIKSWDDLSIGSIVKAKIKSVKKNQLNVILAANLHGRVDIAEVFDTYEEITDKKQPLSNYKKDDVIKVKIIGNHDVKSHKFLPITHKISKASVLELSMKPSELKSKEVHTKSLEEINIGQELTGFVNNSSGNHLWLTISPVLKARISLLDLADNDSNFSENIESVFPLGSALQVKVASIDREHGFVNAIGKSHVDINMSTIKVGDELPGRVLKIAEKYVLLDLGNKVTGISFITDALNDFSLTLKEAFEDKINNVIPTTVLSVDEQNKKIELSLRPATAKTRSIKSHEDLKQGEIVDGIVKNVNDKGIFVYLSRKVEAFVPVSKLSDSYLKEWKKFYKPMQYVLGKVVTCDEDSRISLTLRESEINGDLKVLKTYSDIKAGDVFEGTIKSVTDFGVFVKLDNTVNVTGLAHITEIADKKPEDLSALFGVGDRVKAIVLKTNPEKKQISLSLKASHFSKEAELASTTTTTTTVDQLEKEDEDEVMADAGFNDSDSESDIGDQNTEVADRKPETSSDGLSLSAGFDWTASILDQAQEEEESDQDQEDFTENKKHKHKRRKENVVQDKTIDINTRAPESVADFERLLIGNPNSSVVWMNYMAFQLQLSEIEKARELAERALKTINFREEAEKLNIWIAMLNLENTFGTEETLEEVFSRACQYMDSYTIHTKLLGIYEISEKFDKAAELFKATAKKFGGEKVSIWVSWGDFLISHNEEQEARTILGNALKALPKRNHIEVVRKFAQLEFAKGDPERGRSLFEGLVADAPKRIDLWNVYVDQEVKAKDKKKVEDLFERIITKKITRKQAKFFFNKWLQFEESEGDEKTIEYVKAKATEYVASHESQKADE
